Laboratory results reported in PMC6358110, “Role of SpaO in the assembly of the sorting platform of a Salmonella type III secretion system” (PLoS Pathogens, 2019).

Columns and labels:
[1] = target: FLAG-tagged SpaO^L67pBpa (Salmonella enterica Typhimurium SL1344) (UniProt P40699); assay: cross-linking; site-specific in vivo photo-cross-linking: pBpa in SpaO, live S. Typhimurium in PBS irradiated at 365 nm; whole cell lysates on SDS-PAGE, anti-FLAG western blot, with and without UV
[2] = target: T1, SpaO^L, full length product of spaO, N-terminal His-tagged (S. Typhimurium, UniProt P40699 1-303); assay: SEC; N-terminal His-tagged SpaO made in E. coli, purified on Ni-NTA, run on Superose 6 10/300 GL; fractions analysed by SDS-PAGE and Coomassie; SpaO^L and SpaO^S made from one plasmid and co-purified; conditions: both partners purified
T1 construct: SpaO, full length product (SpaO^L) of the spaO gene, S. Typhimurium SPI-1 T3SS sorting platform component; The same plasmid gives both SpaO^L and the internally translated SpaO^S; also called His-tagged SpaO; source: E. coli Lemo21(DE3) harboring plasmid pSB3775, purified (Ni-NTA, Superose 6); not shown: His tag, N-terminal, kept
T1 sequence: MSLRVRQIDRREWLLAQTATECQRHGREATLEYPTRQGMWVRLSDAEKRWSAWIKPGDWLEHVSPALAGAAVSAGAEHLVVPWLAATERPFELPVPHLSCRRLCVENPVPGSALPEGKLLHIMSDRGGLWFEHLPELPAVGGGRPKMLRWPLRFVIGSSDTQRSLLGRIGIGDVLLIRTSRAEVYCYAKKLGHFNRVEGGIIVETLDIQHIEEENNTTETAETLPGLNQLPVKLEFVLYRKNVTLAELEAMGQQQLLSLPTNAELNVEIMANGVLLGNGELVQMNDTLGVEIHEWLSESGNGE

FLAG-tagged SpaO^L67pBpa (from UniProt P40699 1-303) (natural protein)
stoichiometry N [1]: 4

B1: SpaO^S, short form of SpaO composed of the C-terminal 101 amino acids (domain or fragment)
chain: VETLDIQHIEEENNTTETAETLPGLNQLPVKLEFVLYRKNVTLAELEAMGQQQLLSLPTNAELNVEIMANGVLLGNGELVQMNDTLGVEIHEWLSESGNGE
notes: SpaO^S, internally translated product of spaO starting at the internal GTG codon 203; the C-terminal 101 amino acids of SpaO, S. Typhimurium; Translated from an internal GTG start codon, so the first residue is probably Met rather than Val (surmised); source: E. coli Lemo21(DE3) harboring plasmid pSB3775, co-purified with His-tagged SpaO^L (Ni-NTA, Superose 6)
stoichiometry N [2]: 2 SpaO^S per SpaO^L
